Data published in paper PMC11773018.

Tests used:
[1] = target: human complement factor H (human) (UniProt P08603); experiment: SPR; human FH conjugated to a CM5 chip; untreated untagged CspZ flowed in PBS at 10 μl/min, 25 °C; Biacore T200; 1:1 Langmuir model
[2] = target: human factor H (human) (UniProt P08603); experiment: SPR; human FH conjugated to a CM5 chip; untreated (PBS) untagged CspZ at one concentration (2 uM in methods and legend, 1 uM in the table's footnote) flowed in PBS at 10 ul/min, 25 C, Biacore T200, 1:1 Langmuir model
[3] = target: human factor H (human) (UniProt P08603); experiment: SPR; human FH conjugated to a CM5 chip; untagged CspZ treated with 100 uM EDTA and dialysed against PBS, one concentration (2 uM in methods and legend, 1 uM in the table's footnote), flow rate 30 ul/min, 25 C, Biacore T200, 1:1 Langmuir model
[4] = target: human factor H (human) (UniProt P08603); experiment: SPR; human FH conjugated to a CM5 chip; untagged CspZ treated with 100 uM EDTA and dialysed against PBS, one concentration (2 uM in methods and legend, 1 uM in the table's footnote), flow rate 100 ul/min, 25 C, Biacore T200, 1:1 Langmuir model
[5] = target: human factor H (human) (UniProt P08603); experiment: SPR; human FH conjugated to a CM5 chip; untreated (PBS) untagged CspZ at one concentration (2 uM in methods and legend, 1 uM in the table's footnote) flowed in PBS at 30 ul/min, 25 C, Biacore T200, 1:1 Langmuir model
[6] = target: human factor H (human) (UniProt P08603); experiment: SPR; human FH conjugated to a CM5 chip; untreated (PBS) untagged CspZ at one concentration (2 uM in methods and legend, 1 uM in the table's footnote) flowed in PBS at 100 ul/min, 25 C, Biacore T200, 1:1 Langmuir model
[7] = target: human complement factor H (human) (UniProt P08603); experiment: SPR; human FH conjugated to a CM5 chip; untagged CspZ treated with 100 μM EDTA and dialysed against PBS, flowed in EDTA-treated PBS (100 μM) at 10 μl/min, 25 °C; 1:1 Langmuir model
[8] = target: human factor H (human) (UniProt P08603); experiment: SPR; human FH conjugated to a CM5 chip; untagged CspZ treated with 100 uM EDTA and dialysed against PBS, one concentration (2 uM in methods and legend, 1 uM in the table's footnote), flow rate 10 ul/min, 25 C, Biacore T200, 1:1 Langmuir model
[9] = target: human complement factor H (human) (UniProt P08603); experiment: SPR; human FH conjugated to a CM5 chip; EDTA-treated, PBS-dialysed untagged CspZ then incubated with 100 μM zinc, flowed in zinc-treated PBS (100 μM) at 10 μl/min, 25 °C; 1:1 Langmuir model
[10] = target: human factor H (human) (UniProt P08603); experiment: SPR; human FH conjugated to a CM5 chip; EDTA-treated, PBS-dialysed untagged CspZB31 then treated with 100 uM zinc (EDTA-Zn), one concentration (2 uM in methods and legend, 1 uM in the table's footnote), flow rate 100 ul/min, 25 C, Biacore T200, 1:1 Langmuir model
[11] = target: human factor H (human) (UniProt P08603); experiment: SPR; human FH conjugated to a CM5 chip; EDTA-treated, PBS-dialysed untagged CspZB31 then treated with 100 uM zinc (EDTA-Zn), one concentration (2 uM in methods and legend, 1 uM in the table's footnote), flow rate 30 ul/min, 25 C, Biacore T200, 1:1 Langmuir model
[12] = target: human factor H (human) (UniProt P08603); experiment: SPR; human FH conjugated to a CM5 chip; EDTA-treated, PBS-dialysed untagged CspZB31 then treated with 100 uM zinc (EDTA-Zn), one concentration (2 uM in methods and legend, 1 uM in the table's footnote), flow rate 10 ul/min, 25 C, Biacore T200, 1:1 Langmuir model

CspZ from Borrelia afzelii VS461, untagged (natural protein)
Kd [1]: 370 nM | koff [1]: 0.0034 s⁻¹ | kon [1]: 9420 M⁻¹ s⁻¹ | Kd [2]: 370 nM | koff [2]: 0.004 s⁻¹ | kon [2]: 10800 M⁻¹ s⁻¹ | Kd [3]: 430 nM | koff [3]: 0.003 s⁻¹ | kon [3]: 9160 M⁻¹ s⁻¹ | Kd [4]: 110 nM | koff [4]: 0.004 s⁻¹ | kon [4]: 11100 M⁻¹ s⁻¹ | Kd [5]: 380 nM | koff [5]: 0.004 s⁻¹ | kon [5]: 10800 M⁻¹ s⁻¹ | Kd [6]: 340 nM | koff [6]: 0.003 s⁻¹ | kon [6]: 10500 M⁻¹ s⁻¹ | Kd [7]: 470 nM | koff [7]: 0.0045 s⁻¹ | kon [7]: 10600 M⁻¹ s⁻¹ | Kd [8]: 480 nM | koff [8]: 0.004 s⁻¹ | kon [8]: 10700 M⁻¹ s⁻¹

CspZ from Borrelia burgdorferi B31, untagged (natural protein)
Kd [9]: 680 nM | koff [9]: 0.035 s⁻¹ | kon [9]: 51200 M⁻¹ s⁻¹ | Kd [1]: 340 nM | koff [1]: 0.021 s⁻¹ | kon [1]: 66600 M⁻¹ s⁻¹ | Kd [2]: 230 nM | koff [2]: 0.016 s⁻¹ | kon [2]: 68800 M⁻¹ s⁻¹ | Kd [10]: 660 nM | koff [10]: 0.044 s⁻¹ | kon [10]: 66600 M⁻¹ s⁻¹ | Kd [3]: 3730 nM | koff [3]: 0.021 s⁻¹ | kon [3]: 5790 M⁻¹ s⁻¹ | Kd [11]: 570 nM | koff [11]: 0.034 s⁻¹ | kon [11]: 61700 M⁻¹ s⁻¹ | Kd [12]: 620 nM | koff [12]: 0.037 s⁻¹ | kon [12]: 60900 M⁻¹ s⁻¹ | Kd [4]: 3670 nM | koff [4]: 0.017 s⁻¹ | kon [4]: 4830 M⁻¹ s⁻¹ | Kd [5]: 270 nM | koff [5]: 0.017 s⁻¹ | kon [5]: 63200 M⁻¹ s⁻¹ | Kd [6]: 250 nM | koff [6]: 0.017 s⁻¹ | kon [6]: 69200 M⁻¹ s⁻¹ | Kd [7]: 3050 nM | koff [7]: 0.012 s⁻¹ | kon [7]: 4370 M⁻¹ s⁻¹ | Kd [8]: 3370 nM | koff [8]: 0.012 s⁻¹ | kon [8]: 4560 M⁻¹ s⁻¹

CspZ from Borrelia burgdorferi B408, untagged (natural protein)
Kd [1]: 540 nM | koff [1]: 0.0079 s⁻¹ | kon [1]: 14100 M⁻¹ s⁻¹ | Kd [2]: 550 nM | koff [2]: 0.008 s⁻¹ | kon [2]: 16500 M⁻¹ s⁻¹ | Kd [3]: 480 nM | koff [3]: 0.006 s⁻¹ | kon [3]: 13600 M⁻¹ s⁻¹ | Kd [4]: 500 nM | koff [4]: 0.008 s⁻¹ | kon [4]: 16700 M⁻¹ s⁻¹ | Kd [5]: 530 nM | koff [5]: 0.007 s⁻¹ | kon [5]: 13600 M⁻¹ s⁻¹ | Kd [6]: 540 nM | koff [6]: 0.006 s⁻¹ | kon [6]: 13200 M⁻¹ s⁻¹ | Kd [7]: 490 nM | koff [7]: 0.0071 s⁻¹ | kon [7]: 13900 M⁻¹ s⁻¹ | Kd [8]: 480 nM | koff [8]: 0.007 s⁻¹ | kon [8]: 15700 M⁻¹ s⁻¹
